Reference: PMC8167854, “Transfer of stabilising mutations between different secondary active transporter families” (FEBS Open Bio, 2021)

B1: Arabidopsis thaliana boron transporter 1 (AtBOR1), wild-type (natural protein)
chain: not shown
notes: BOR1 borate transporter of Arabidopsis thaliana (SLC4 family), full-length wild type; Expressed from pDDGFP-2 with a TEV-cleavable C-terminal yEGFP His-tag; also called WT AtBOR1; AtBOR1 WT; source: S. cerevisiae FGY217, purified in DDM (His-Trap, TEV cleavage, reverse IMAC, Superdex 200); not shown: yEGFP, C-terminal, cleaved; His-tag, C-terminal, cleaved
B2: AtBOR1 M363F (natural protein)
chain: not shown
notes: BOR1 borate transporter of Arabidopsis thaliana with the point mutation M363F, made on the AtBOR1 WT gene; Expressed from pDDGFP-2 with a TEV-cleavable C-terminal yEGFP His-tag; tag removed with TEV protease before SEC; source: S. cerevisiae FGY217, purified in DDM (His-Trap, TEV cleavage, reverse IMAC, Superdex 200); not shown: yEGFP, C-terminal, cleaved; His-tag, C-terminal, cleaved
B3: AtBOR1 M363Y (natural protein)
chain: not shown
notes: BOR1 borate transporter of Arabidopsis thaliana with the point mutation M363Y, made on the AtBOR1 WT gene; Expressed from pDDGFP-2 with a TEV-cleavable C-terminal yEGFP His-tag; tag removed with TEV protease before SEC; source: S. cerevisiae FGY217, purified in DDM (His-Trap, TEV cleavage, reverse IMAC, Superdex 200); not shown: yEGFP, C-terminal, cleaved; His-tag, C-terminal, cleaved

Biological target: the molecule itself
Test: SDS/PAGE of SEC fractions, bands identified by mass spectrometry; protein purified in 0.03% DDM, eluted from Superdex 200 10/300 in 20 mM Tris/HCl pH 7.5, 150 mM NaCl; fractions on a 12% Tris-Glycine SDS/PAGE gel; monomer and dimer bands

Protein	binding result
B1	binds
B2	binds
B3	binds
